In paper PMC8248823, “Phosphorus and sulfur SAD phasing of the nucleic acid-bound DNA-binding domain of interferon regulatory factor 4”:

Target: T1, IRF4 DBD (human, UniProt Q15306 20-139)
T1 sequence: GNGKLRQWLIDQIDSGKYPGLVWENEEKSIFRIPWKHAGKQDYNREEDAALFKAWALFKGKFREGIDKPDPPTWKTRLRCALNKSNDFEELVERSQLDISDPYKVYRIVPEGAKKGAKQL
Test: X-ray crystallography (native P/S SAD); three IRF4 DBD molecules on one ISRE; DNA:protein 1.2:1 mixed before crystallization; Crystallization complex: protein in 20 mM Tris-HCl pH 8, 500 mM NaCl, 0.5 mM TCEP (gel-filtration buffer); DNA:protein 1.2:1, 1 h at 277 K; crystallization conditions not in material
Conditions: protein: recombinant; tags: N-terminal 6xHis; chain copies: 3; 5' overhang 1 nt on each strand (A / T), 20 bp duplex

B1: ISRE 21-mer (dsDNA)
DNA 1: AATAAAAGAAACCGAAAGTAA
DNA 2: TTTACTTTCGGTTTCTTTTAT
Q: Does B1 bind?
A: binds
